Values quoted from earlier work, collected in publication PMC3433420.
Like-named read-outs stand apart in the source and are kept apart here.

Assays:
Conditions in all cases: cited from earlier work
PIK3R2-N (Homo sapiens) [1] = biological target: PIK3R2-N (Homo sapiens) (UniProt O00459)
PIK3R2-NC (Homo sapiens) = PIK3R2-NC (Homo sapiens) (UniProt O00459)
PIK3R3-NC (Homo sapiens) [2] = biological target: PIK3R3-NC (Homo sapiens) (UniProt Q92569)
PIK3R3-C (Homo sapiens) = PIK3R3-C (Homo sapiens) (UniProt Q92569)
PIK3R2-N (Homo sapiens) [3] = biological target: PIK3R2-N (Homo sapiens) (UniProt O00459); remark: listed apart in the source
PIK3R1-NC (Homo sapiens) [4] = biological target: PIK3R1-NC (Homo sapiens) (UniProt P27986)
PIK3R3-NC (Homo sapiens) [5] = biological target: PIK3R3-NC (Homo sapiens) (UniProt Q92569); remark: listed apart in the source
TENC1 (Homo sapiens) [6] = biological target: TENC1 (Homo sapiens) (UniProt Q63HR2)
SYK-NC (Homo sapiens) [7] = biological target: SYK-NC (Homo sapiens) (UniProt P43405)
PIK3R3-N (Homo sapiens) [8] = biological target: PIK3R3-N (Homo sapiens) (UniProt Q92569)
ABL2 (Homo sapiens) [9] = biological target: ABL2 (Homo sapiens) (UniProt P42684)
GRB7 (Homo sapiens) [10] = biological target: GRB7 (Homo sapiens) (UniProt Q14451)
TENC1 (Homo sapiens) [11] = biological target: TENC1 (Homo sapiens) (UniProt Q63HR2); remark: listed apart in the source
RASA1-N (Homo sapiens) [12] = biological target: RASA1-N (Homo sapiens) (UniProt P20936)
PIK3R1-NC (Homo sapiens) [13] = biological target: PIK3R1-NC (Homo sapiens) (UniProt P27986); remark: listed apart in the source
PIK3R1-N (Homo sapiens) = PIK3R1-N (Homo sapiens) (UniProt P27986)
PIK3R3-N (Homo sapiens) [14] = biological target: PIK3R3-N (Homo sapiens) (UniProt Q92569); remark: listed apart in the source
SLA (Homo sapiens) [15] = biological target: SLA (Homo sapiens) (UniProt Q13239)
PLCG2-NC (Homo sapiens) [16] = biological target: PLCG2-NC (Homo sapiens) (UniProt P16885)
LCK (Homo sapiens) = LCK (Homo sapiens) (UniProt P06239)
RASA1-NC (Homo sapiens) [17] = biological target: RASA1-NC (Homo sapiens) (UniProt P20936)
SH2B3 (Homo sapiens) = SH2B3 (Homo sapiens) (UniProt Q9UQQ2)
SH2B (Homo sapiens) = SH2B (Homo sapiens) (UniProt Q9NRF2)
RASA1-NC (Homo sapiens) [18] = biological target: RASA1-NC (Homo sapiens) (UniProt P20936); remark: listed apart in the source
SLA (Homo sapiens) [19] = biological target: SLA (Homo sapiens) (UniProt Q13239); remark: listed apart in the source
SH2D3C (Homo sapiens) = SH2D3C (Homo sapiens) (UniProt Q8N5H7)
ABL2 (Homo sapiens) [20] = biological target: ABL2 (Homo sapiens) (UniProt P42684); remark: listed apart in the source
PIK3R1-NC (Homo sapiens) [21] = biological target: PIK3R1-NC (Homo sapiens) (UniProt P27986); remark: listed apart in the source
ZAP70-NC (Homo sapiens) = ZAP70-NC (Homo sapiens) (UniProt P43403)
SHC2-PTB (Homo sapiens) = SHC2-PTB (Homo sapiens) (UniProt P98077)
SYK-NC (Homo sapiens) [22] = biological target: SYK-NC (Homo sapiens) (UniProt P43405); remark: listed apart in the source
RASA1-N (Homo sapiens) [23] = biological target: RASA1-N (Homo sapiens) (UniProt P20936); remark: listed apart in the source
SHC1-PTB (Homo sapiens) = SHC1-PTB (Homo sapiens) (UniProt P29353)
RASA1-N (Homo sapiens) [24] = biological target: RASA1-N (Homo sapiens) (UniProt P20936); remark: listed apart in the source
FES (Homo sapiens) = FES (Homo sapiens) (UniProt P07332)
PLCG2-NC (Homo sapiens) [25] = biological target: PLCG2-NC (Homo sapiens) (UniProt P16885); remark: listed apart in the source
GRB10 (Homo sapiens) [26] = biological target: GRB10 (Homo sapiens) (UniProt Q13322)
SRC (Homo sapiens) = SRC (Homo sapiens) (UniProt P12931)
SOCS2 (Homo sapiens) = SOCS2 (Homo sapiens) (UniProt O14508)
PIK3R3-NC (Homo sapiens) [27] = biological target: PIK3R3-NC (Homo sapiens) (UniProt Q92569); remark: listed apart in the source
ABL2 (Homo sapiens) [28] = biological target: ABL2 (Homo sapiens) (UniProt P42684); remark: listed apart in the source
TNS4 (Homo sapiens) = TNS4 (Homo sapiens) (UniProt Q8IZW8)
BLK (Homo sapiens) = BLK (Homo sapiens) (UniProt P51451)
GRB7 (Homo sapiens) [29] = biological target: GRB7 (Homo sapiens) (UniProt Q14451); remark: listed apart in the source
YES1 (Homo sapiens) = YES1 (Homo sapiens) (UniProt P07947)
SOCS1 (Homo sapiens) = SOCS1 (Homo sapiens) (UniProt O15524)
ITK (Homo sapiens) = ITK (Homo sapiens) (UniProt Q08881)
PTPN6-NC (Homo sapiens) = PTPN6-NC (Homo sapiens) (UniProt P29350)
GRB10 (Homo sapiens) [30] = biological target: GRB10 (Homo sapiens) (UniProt Q13322); remark: listed apart in the source
SH2D2A (Homo sapiens) = SH2D2A (Homo sapiens) (UniProt Q9NP31)

Chain of RASA1-N (Homo sapiens) (P20936 176-446): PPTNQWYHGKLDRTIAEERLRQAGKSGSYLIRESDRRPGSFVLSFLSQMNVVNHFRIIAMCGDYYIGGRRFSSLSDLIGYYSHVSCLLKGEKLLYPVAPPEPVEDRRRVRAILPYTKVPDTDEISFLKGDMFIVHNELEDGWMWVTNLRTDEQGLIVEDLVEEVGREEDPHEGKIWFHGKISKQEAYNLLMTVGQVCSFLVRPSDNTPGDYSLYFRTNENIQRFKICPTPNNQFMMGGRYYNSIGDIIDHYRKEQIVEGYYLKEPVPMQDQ
Chain of PIK3R1-NC (Homo sapiens) (P27986 328-723): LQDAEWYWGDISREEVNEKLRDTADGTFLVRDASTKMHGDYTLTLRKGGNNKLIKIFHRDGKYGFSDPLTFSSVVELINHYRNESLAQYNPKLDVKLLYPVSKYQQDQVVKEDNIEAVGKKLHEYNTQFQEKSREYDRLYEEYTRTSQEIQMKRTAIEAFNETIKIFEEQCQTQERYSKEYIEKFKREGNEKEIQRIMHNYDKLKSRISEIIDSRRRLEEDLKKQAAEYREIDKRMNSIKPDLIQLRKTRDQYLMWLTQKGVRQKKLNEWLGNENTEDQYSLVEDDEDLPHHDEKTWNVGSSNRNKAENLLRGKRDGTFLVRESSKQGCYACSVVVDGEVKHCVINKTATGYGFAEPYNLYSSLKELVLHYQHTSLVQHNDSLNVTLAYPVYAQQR
Chain of ABL2 (Homo sapiens) (P42684 168-268): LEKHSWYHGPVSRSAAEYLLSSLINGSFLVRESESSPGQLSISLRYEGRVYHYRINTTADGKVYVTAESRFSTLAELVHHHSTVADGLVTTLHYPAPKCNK
Chain of RASA1-NC (Homo sapiens) (P20936 176-446): as the sequence (P20936 176-446) above
Chain of TENC1 (Homo sapiens) (Q63HR2 1135-1252): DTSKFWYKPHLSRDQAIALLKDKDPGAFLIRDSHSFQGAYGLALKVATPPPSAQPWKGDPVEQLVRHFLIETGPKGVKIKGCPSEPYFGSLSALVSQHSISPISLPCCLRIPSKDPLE
Chain of GRB10 (Homo sapiens) (Q13322 488-579): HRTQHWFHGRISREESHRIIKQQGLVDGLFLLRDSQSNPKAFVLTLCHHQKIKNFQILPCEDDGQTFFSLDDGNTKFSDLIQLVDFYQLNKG
Chain of SLA (Homo sapiens) (Q13239 79-180): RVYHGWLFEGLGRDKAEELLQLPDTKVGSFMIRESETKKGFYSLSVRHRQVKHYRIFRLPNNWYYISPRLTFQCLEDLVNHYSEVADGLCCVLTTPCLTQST
Chain of PIK3R2-N (Homo sapiens) (O00459 325-721): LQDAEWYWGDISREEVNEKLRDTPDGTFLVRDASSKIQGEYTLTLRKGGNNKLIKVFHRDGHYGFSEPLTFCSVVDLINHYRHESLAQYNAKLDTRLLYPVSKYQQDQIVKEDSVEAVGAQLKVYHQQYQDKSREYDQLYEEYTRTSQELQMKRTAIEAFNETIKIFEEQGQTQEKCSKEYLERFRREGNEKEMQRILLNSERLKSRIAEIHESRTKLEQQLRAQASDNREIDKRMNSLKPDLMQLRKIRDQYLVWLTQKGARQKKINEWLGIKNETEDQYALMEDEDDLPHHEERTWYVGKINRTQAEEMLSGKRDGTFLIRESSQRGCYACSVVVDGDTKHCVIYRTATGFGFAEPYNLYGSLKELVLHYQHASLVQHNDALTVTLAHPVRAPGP
Chain of PLCG2-NC (Homo sapiens) (P16885 527-740): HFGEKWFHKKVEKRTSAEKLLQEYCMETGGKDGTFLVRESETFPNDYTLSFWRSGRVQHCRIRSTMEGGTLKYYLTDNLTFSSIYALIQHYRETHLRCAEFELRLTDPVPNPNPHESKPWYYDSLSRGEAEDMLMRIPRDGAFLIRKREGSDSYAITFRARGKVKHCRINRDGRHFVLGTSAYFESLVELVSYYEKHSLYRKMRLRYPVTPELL
Chain of GRB7 (Homo sapiens) (Q14451 426-532): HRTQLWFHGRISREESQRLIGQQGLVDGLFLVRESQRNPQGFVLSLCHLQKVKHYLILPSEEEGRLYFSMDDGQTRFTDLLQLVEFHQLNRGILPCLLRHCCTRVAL
Chain of FES (Homo sapiens) (P07332 455-554): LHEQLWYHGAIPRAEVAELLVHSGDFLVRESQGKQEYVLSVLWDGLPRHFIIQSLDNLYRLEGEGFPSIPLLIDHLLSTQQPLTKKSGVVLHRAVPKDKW
Chain of TNS4 (Homo sapiens) (Q8IZW8 444-561): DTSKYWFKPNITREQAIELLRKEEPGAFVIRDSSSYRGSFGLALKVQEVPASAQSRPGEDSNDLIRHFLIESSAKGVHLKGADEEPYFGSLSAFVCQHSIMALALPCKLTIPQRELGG
Chain of PTPN6-NC (Homo sapiens) (P29350 1-218): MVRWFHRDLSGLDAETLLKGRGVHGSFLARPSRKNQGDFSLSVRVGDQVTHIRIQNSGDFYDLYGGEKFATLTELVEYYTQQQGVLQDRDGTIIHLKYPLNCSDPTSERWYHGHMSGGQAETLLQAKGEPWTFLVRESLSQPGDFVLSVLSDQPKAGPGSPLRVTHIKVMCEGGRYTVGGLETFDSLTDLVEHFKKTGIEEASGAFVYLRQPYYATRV
Chain of PIK3R1-N (Homo sapiens) (P27986 328-723): as the sequence (P27986 328-723) above
Chain of SHC2-PTB (Homo sapiens) (P98077 482-582): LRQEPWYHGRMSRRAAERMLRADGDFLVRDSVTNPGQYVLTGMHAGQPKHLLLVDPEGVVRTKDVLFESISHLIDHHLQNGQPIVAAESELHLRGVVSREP
Chain of SHC1-PTB (Homo sapiens) (P29353 483-583): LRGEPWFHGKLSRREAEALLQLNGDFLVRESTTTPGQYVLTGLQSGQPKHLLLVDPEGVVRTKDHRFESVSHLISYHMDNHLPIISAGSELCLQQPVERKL
Chain of SH2D3C (Homo sapiens) (Q8N5H7 215-324): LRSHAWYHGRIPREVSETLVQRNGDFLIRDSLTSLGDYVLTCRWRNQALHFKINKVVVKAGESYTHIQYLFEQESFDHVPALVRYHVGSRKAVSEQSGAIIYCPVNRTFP
Chain of ZAP70-NC (Homo sapiens) (P43403 5-259): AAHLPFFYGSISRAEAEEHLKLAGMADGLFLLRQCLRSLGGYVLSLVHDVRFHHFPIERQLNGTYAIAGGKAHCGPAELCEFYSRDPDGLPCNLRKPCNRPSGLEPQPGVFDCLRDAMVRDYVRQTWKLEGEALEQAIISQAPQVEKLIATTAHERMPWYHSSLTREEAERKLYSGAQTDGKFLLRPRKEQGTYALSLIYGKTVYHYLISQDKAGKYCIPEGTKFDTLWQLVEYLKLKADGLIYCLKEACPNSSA

…pYEYMNRQR
apparent Kd (screen) (PIK3R2-N (Homo sapiens) [1]): 199 nM | apparent Kd (screen) (PIK3R2-NC (Homo sapiens)): 99 nM | apparent Kd (screen) (PIK3R3-NC (Homo sapiens) [2]): 151 nM | apparent Kd (screen) (PIK3R3-C (Homo sapiens)): 130 nM | apparent Kd (screen) (PIK3R2-N (Homo sapiens) [3]): 151 nM | apparent Kd (screen) (PIK3R1-NC (Homo sapiens) [4]): 43 nM | apparent Kd (screen) (PIK3R3-NC (Homo sapiens) [5]): 122 nM | apparent Kd (screen) (TENC1 (Homo sapiens) [6]): 1620 nM | apparent Kd (screen) (SYK-NC (Homo sapiens) [7]): 1300 nM | apparent Kd (screen) (PIK3R3-N (Homo sapiens) [8]): 157 nM | apparent Kd (screen) (ABL2 (Homo sapiens) [9]): 357 nM | apparent Kd (screen) (GRB7 (Homo sapiens) [10]): 999 nM | apparent Kd (screen) (TENC1 (Homo sapiens) [11]): 1710 nM | apparent Kd (screen) (RASA1-N (Homo sapiens) [12]): 1040 nM | apparent Kd (screen) (PIK3R1-NC (Homo sapiens) [13]): 33 nM | apparent Kd (screen) (PIK3R1-N (Homo sapiens)): 296 nM | apparent Kd (screen) (PIK3R3-N (Homo sapiens) [14]): 171 nM | apparent Kd (screen) (SLA (Homo sapiens) [15]): 2000 nM

…pYRALMDEEd
apparent Kd (screen) (PLCG2-NC (Homo sapiens) [16]): 1500 nM | apparent Kd (screen) (LCK (Homo sapiens)): 2000 nM | apparent Kd (screen) (RASA1-NC (Homo sapiens) [17]): 1650 nM | apparent Kd (screen) (SH2B3 (Homo sapiens)): 1360 nM | apparent Kd (screen) (SH2B (Homo sapiens)): 2000 nM | apparent Kd (screen) (RASA1-NC (Homo sapiens) [18]): 1380 nM | apparent Kd (screen) (SLA (Homo sapiens) [19]): 1600 nM | apparent Kd (screen) (SH2D3C (Homo sapiens)): 2000 nM | apparent Kd (screen) (ABL2 (Homo sapiens) [20]): 1500 nM | apparent Kd (screen) (PIK3R1-NC (Homo sapiens) [21]): 239 nM | apparent Kd (screen) (ZAP70-NC (Homo sapiens)): 1650 nM | apparent Kd (screen) (SHC2-PTB (Homo sapiens)): 978 nM | apparent Kd (screen) (SYK-NC (Homo sapiens) [22]): 905 nM | apparent Kd (screen) (RASA1-N (Homo sapiens) [23]): 1060 nM | apparent Kd (screen) (SHC1-PTB (Homo sapiens)): 1150 nM | apparent Kd (screen) (RASA1-N (Homo sapiens) [24]): 709 nM | apparent Kd (screen) (FES (Homo sapiens)): 1230 nM | apparent Kd (screen) (PLCG2-NC (Homo sapiens) [25]): 1390 nM | apparent Kd (screen) (GRB10 (Homo sapiens) [26]): 1690 nM | apparent Kd (screen) (SRC (Homo sapiens)): 1140 nM | apparent Kd (screen) (SOCS2 (Homo sapiens)): 2000 nM | apparent Kd (screen) (PIK3R3-NC (Homo sapiens) [27]): 968 nM | apparent Kd (screen) (ABL2 (Homo sapiens) [28]): 2000 nM | apparent Kd (screen) (TNS4 (Homo sapiens)): 2000 nM | apparent Kd (screen) (BLK (Homo sapiens)): 191 nM | apparent Kd (screen) (GRB7 (Homo sapiens) [29]): 755 nM | apparent Kd (screen) (YES1 (Homo sapiens)): 724 nM | apparent Kd (screen) (SOCS1 (Homo sapiens)): 2000 nM | apparent Kd (screen) (ITK (Homo sapiens)): 277 nM | apparent Kd (screen) (PTPN6-NC (Homo sapiens)): 2000 nM | apparent Kd (screen) (GRB10 (Homo sapiens) [30]): 2000 nM | apparent Kd (screen) (SH2D2A (Homo sapiens)): 2000 nM
